Results: PMC11021452, “Exposing the molecular heterogeneity of glycosylated biotherapeutics” (Nature Communications, 2024)

T1: IL-22 RA1 extracellular domain (ECD) (UniProt Q8N6P7 16-228)
T1 construct: Coated on the ELISA plate; also called IL22 receptor; IL22R1A
T1 sequence (looked up): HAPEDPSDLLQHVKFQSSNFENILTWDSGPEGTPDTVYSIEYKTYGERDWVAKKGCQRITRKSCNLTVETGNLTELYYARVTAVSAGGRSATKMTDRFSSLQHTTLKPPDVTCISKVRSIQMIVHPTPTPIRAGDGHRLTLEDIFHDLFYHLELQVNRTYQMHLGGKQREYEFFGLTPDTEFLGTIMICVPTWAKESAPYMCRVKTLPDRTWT


Biological target: T1, IL-22 RA1 extracellular domain (ECD)
Test: ELISA; 96-well plate coated with IL-22 RA1 ECD; varying concentrations of IL22-Fc added in duplicate; bound IL22-Fc detected with goat anti-human IgG-HRP and TMB; potency by parallel curve program relative to the reference standard
Settings: both partners purified

Row | fold change in binding against control IL22-Fc | fold change in potency (binding ELISA) relative to wild type | Binder
1 | ~2 fold |  | enzymatically desialylated IL22-Fc (Fc fusion, UniProt Q9GZX6 34-179, looked up, N-linked glycans with the sialic acids enzymatically removed, IL22 cytokine of the IL22-Fc fusion UTTR1147A, same chain as m1; Same polypeptide as m1; differs only in the glycans; also called sialidase-treated IL22-Fc; source: IL22-Fc from cell culture fermentation, purified, then enzymatically desialylated) APISSHCRLDKSNFQQPYITNRTFMLAKEASLADNNTDVRLIGEKLFHGVSMSERCYLMKQVLNFTLEEVLFPQSDRFQPYMQEVVPFLARLSNRLSTCHIEGDDLHIQRNVQKLKDTVKKLGESGEIKAIGELDLLFMSLRNACI
2 |  | 3.98 fold | IL22-Fc N21Q point mutant (Fc fusion, UniProt Q9GZX6 34-179, looked up, N-linked glycans; the glycosylation site at N21 knocked out, IL22 cytokine of the IL22-Fc fusion UTTR1147A with N21Q; Parent is m1; source: 10 day CHO cell culture fermentations, SP Sepharose Fast Flow ion exchange chromatography) APISSHCRLDKSNFQQPYITQRTFMLAKEASLADNNTDVRLIGEKLFHGVSMSERCYLMKQVLNFTLEEVLFPQSDRFQPYMQEVVPFLARLSNRLSTCHIEGDDLHIQRNVQKLKDTVKKLGESGEIKAIGELDLLFMSLRNACI
